Legend:
Assay in all cases: PEPSCAN ELISA, looped peptide, antibody 10 µg/ml
[1] = target: looped/cyclic peptide … (rabies virus strain ERA)
[2] = target: looped/cyclic peptide … (rabies virus strain ERA); remark: listed apart in the source
[3] = target: looped/cyclic peptide … (rabies virus strain ERA); remark: listed apart in the source
[4] = target: looped/cyclic peptide … (rabies virus strain ERA); remark: listed apart in the source
[5] = target: looped/cyclic peptide … (rabies virus strain ERA); remark: listed apart in the source
[6] = target: looped/cyclic peptide … (rabies virus strain ERA); remark: listed apart in the source
[7] = target: looped/cyclic peptide … (rabies virus strain ERA); remark: listed apart in the source
[8] = target: looped/cyclic peptide … (rabies virus strain ERA); remark: listed apart in the source
[9] = target: looped/cyclic peptide … (rabies virus strain ERA); remark: listed apart in the source
[10] = target: looped/cyclic peptide … (rabies virus strain ERA); remark: listed apart in the source
[11] = target: looped/cyclic peptide … (rabies virus strain ERA); remark: listed apart in the source
[12] = target: looped/cyclic peptide … (rabies virus strain ERA); remark: listed apart in the source
[13] = target: looped/cyclic peptide … (rabies virus strain ERA); remark: listed apart in the source
[14] = target: looped/cyclic peptide … (rabies virus strain ERA); remark: listed apart in the source
[15] = target: looped/cyclic peptide … (rabies virus strain ERA); remark: listed apart in the source
[16] = target: looped/cyclic peptide … (rabies virus strain ERA); remark: listed apart in the source
[17] = target: looped/cyclic peptide … (rabies virus strain ERA); remark: listed apart in the source
[18] = target: looped/cyclic peptide … (rabies virus strain ERA); remark: listed apart in the source
[19] = target: looped/cyclic peptide … (rabies virus strain ERA); remark: listed apart in the source
[20] = target: looped/cyclic peptide … (rabies virus strain ERA); remark: listed apart in the source
[21] = target: looped/cyclic peptide … (rabies virus strain ERA); remark: listed apart in the source
[22] = target: looped/cyclic peptide … (rabies virus strain ERA); remark: listed apart in the source
[23] = target: looped/cyclic peptide … (rabies virus strain ERA); remark: listed apart in the source
[24] = target: looped/cyclic peptide … (rabies virus strain ERA); remark: listed apart in the source
[25] = target: looped/cyclic peptide … (rabies virus strain ERA); remark: listed apart in the source
[26] = target: looped/cyclic peptide … (rabies virus strain ERA); remark: listed apart in the source
[27] = target: looped/cyclic peptide … (rabies virus strain ERA); remark: listed apart in the source
[28] = target: looped/cyclic peptide … (rabies virus strain ERA); remark: listed apart in the source
[29] = target: looped/cyclic peptide … (rabies virus strain ERA); remark: listed apart in the source
[30] = target: looped/cyclic peptide … (rabies virus strain ERA); remark: listed apart in the source
[31] = target: looped/cyclic peptide … (rabies virus strain ERA); remark: listed apart in the source
[32] = target: looped/cyclic peptide … (rabies virus strain ERA); remark: listed apart in the source
[33] = target: looped/cyclic peptide … (rabies virus strain ERA); remark: listed apart in the source
[34] = target: looped/cyclic peptide … (rabies virus strain ERA); remark: listed apart in the source
[35] = target: looped/cyclic peptide … (rabies virus strain ERA); remark: listed apart in the source
[36] = target: looped/cyclic peptide … (rabies virus strain ERA); remark: listed apart in the source
[37] = target: looped/cyclic peptide … (rabies virus strain ERA); remark: listed apart in the source
[38] = target: looped/cyclic peptide … (rabies virus strain ERA); remark: listed apart in the source
[39] = target: looped/cyclic peptide … (rabies virus strain ERA); remark: listed apart in the source
[40] = target: looped/cyclic peptide … (rabies virus strain ERA); remark: listed apart in the source
[41] = target: looped/cyclic peptide … (rabies virus strain ERA); remark: listed apart in the source
[42] = target: looped/cyclic peptide … (rabies virus strain ERA); remark: listed apart in the source
[43] = target: looped/cyclic peptide … (rabies virus strain ERA); remark: listed apart in the source
[44] = target: looped/cyclic peptide … (rabies virus strain ERA); remark: listed apart in the source
[45] = target: looped/cyclic peptide … (rabies virus strain ERA); remark: listed apart in the source
[46] = target: looped/cyclic peptide … (rabies virus strain ERA); remark: listed apart in the source
[47] = target: looped/cyclic peptide … (rabies virus strain ERA); remark: listed apart in the source
[48] = target: looped/cyclic peptide … (rabies virus strain ERA); remark: listed apart in the source
[49] = target: looped/cyclic peptide … (rabies virus strain ERA); remark: listed apart in the source
[50] = target: looped/cyclic peptide … (rabies virus strain ERA); remark: listed apart in the source
[51] = target: looped/cyclic peptide … (rabies virus strain ERA); remark: listed apart in the source
[52] = target: looped/cyclic peptide […] (rabies virus strain ERA)
[53] = target: looped/cyclic peptide … (rabies virus strain ERA); remark: listed apart in the source
[54] = target: looped/cyclic peptide … (rabies virus strain ERA); remark: listed apart in the source
[55] = target: looped/cyclic peptide … (rabies virus strain ERA); remark: listed apart in the source
[56] = target: looped/cyclic peptide … (rabies virus strain ERA); remark: listed apart in the source
[57] = target: looped/cyclic peptide … (rabies virus strain ERA); remark: listed apart in the source
[58] = target: looped/cyclic peptide … (rabies virus strain ERA); remark: listed apart in the source
[59] = target: looped/cyclic peptide … (rabies virus strain ERA); remark: listed apart in the source
[60] = target: looped/cyclic peptide … (rabies virus strain ERA); remark: listed apart in the source
[61] = target: looped/cyclic peptide … (rabies virus strain ERA); remark: listed apart in the source
[62] = target: looped/cyclic peptide … (rabies virus strain ERA); remark: listed apart in the source
[63] = target: looped/cyclic peptide … (rabies virus strain ERA); remark: listed apart in the source
[64] = target: looped/cyclic peptide … (rabies virus strain ERA); remark: listed apart in the source
[65] = target: looped/cyclic peptide … (rabies virus strain ERA); remark: listed apart in the source
[66] = target: looped/cyclic peptide DIHHLSCPNNLVVED (rabies virus strain ERA)
[67] = target: looped/cyclic peptide … (rabies virus strain ERA); remark: listed apart in the source
[68] = target: looped/cyclic peptide … (rabies virus strain ERA); remark: listed apart in the source
[69] = target: looped/cyclic peptide … (rabies virus strain ERA); remark: listed apart in the source
[70] = target: looped/cyclic peptide … (rabies virus strain ERA); remark: listed apart in the source
[71] = target: looped/cyclic peptide … (rabies virus strain ERA); remark: listed apart in the source
[72] = target: looped/cyclic peptide … (rabies virus strain ERA); remark: listed apart in the source
[73] = target: looped/cyclic peptide … (rabies virus strain ERA); remark: listed apart in the source
[74] = target: looped/cyclic peptide … (rabies virus strain ERA); remark: listed apart in the source
[75] = target: looped/cyclic peptide … (rabies virus strain ERA); remark: listed apart in the source

B1: human monoclonal antibody CRJB (antibody, V domains shown)
VH: QITLKETGPTLVKPTQTLTLTCTFSGFSLSTSGVGVGWIRQPPGKALEWVTLIYWDDDKRYSPSLENRVTIRKDTSKNQVALTMTNMDPLDTGTYYCAHRQHISSFPWFDSWGQGTLVTVSS
VL: SYVLTQPPSVSVAPGKTARINCGGNNIEYRSVHWYQQKSGQAPVAVIYDNSDRPSGIPERFSGSKSGNTATLTISRVEAGDEADYYCQVWDISSDVVFGGGTKLTVLG
- OD value [1]: 46 OD
- OD value [2]: 77 OD
- OD value [3]: 89 OD
- OD value [4]: 78 OD
- OD value [5]: 77 OD
- OD value [6]: 45 OD
- OD value [7]: 62 OD
- OD value [8]: 54 OD
- OD value [9]: 82 OD
- OD value [10]: 65 OD
- OD value [11]: 79 OD
- OD value [12]: 65 OD
- OD value [13]: 71 OD
- OD value [14]: 50 OD
- OD value [15]: 85 OD
- OD value [16]: 92 OD
- OD value [17]: 90 OD
- OD value [18]: 93 OD
- OD value [19]: 69 OD
- OD value [20]: 92 OD
- OD value [21]: 92 OD
- OD value [22]: 73 OD
- OD value [23]: 70 OD
- OD value [24]: 72 OD
- OD value [25]: 49 OD
- OD value [26]: 70 OD
- OD value [27]: 75 OD
- OD value [28]: 78 OD
- OD value [29]: 68 OD
- OD value [30]: 69 OD
- OD value [31]: 55 OD
- OD value [32]: 92 OD
- OD value [33]: 75 OD
- OD value [34]: 65 OD
- OD value [35]: 71 OD
- OD value [36]: 80 OD
- OD value [37]: 85 OD
- OD value [38]: 65 OD
- OD value [39]: 85 OD
- OD value [40]: 102 OD
- OD value [41]: 82 OD
- OD value [42]: 93 OD
- OD value [43]: 64 OD
- OD value [44]: 63 OD
- OD value [45]: 83 OD
- OD value [46]: 33 OD
- OD value [47]: 71 OD
- OD value [48]: 74 OD
- OD value [49]: 73 OD
- OD value [50]: 68 OD
- OD value [51]: 83 OD
- OD value [52]: 71 OD
- OD value [53]: 90 OD
- OD value [54]: 72 OD
- OD value [55]: 100 OD
- OD value [56]: 78 OD
- OD value [57]: 93 OD
- OD value [58]: 86 OD
- OD value [59]: 111 OD
- OD value [60]: 104 OD
- OD value [61]: 75 OD
- OD value [62]: 92 OD
- OD value [63]: 72 OD
- OD value [64]: 70 OD
- OD value [65]: 59 OD
- OD value [66]: 48 OD
- OD value [67]: 71 OD
- OD value [68]: 58 OD
- OD value [69]: 64 OD
- OD value [70]: 74 OD
- OD value [71]: 69 OD
- OD value [72]: 54 OD
- OD value [73]: 60 OD
- OD value [74]: 75 OD
- OD value [75]: 92 OD

Reference: patent US20060263802A1 (CRUCELL HOLLAND B V, published 2006)
